Measured values as given in the supplement of paper PMC10201428.
± gives the standard deviation of the averaged measurements.

Columns and labels:
[1] = tested on: VchCAST RNA-guided transposition machinery (E. coli BL21(DE3) host, lacZ target); assay: relative integration efficiency (T-RL orientation) vs wild-type transposon end (log2 (normalized fold change)); transposon end mutated: left end; higher = more efficient transposition
Procedure: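 Pooled, barcoded VchCAST (Tn6677) mini-transposon donor libraries; each variable transposon-end sequence sits in a fixed pDonor mini-transposon context (10-bp barcode and cargo not included). Left- or right-end libraries were co-transformed with pEffector (TniQ-Cascade, TnsABC, lacZ crRNA, T7, 0.1 mM IPTG) into E. coli BL21(DE3) and grown 18 h at 37 C. T-LR and T-RL junction amplicons were sequenced; output/input barcode fold change was normalised to the mean of four wild-type barcodes and log2-transformed. Two biological replicates; zero-count/undetected variants carry floor values (-10 / -15), censored here. Barcode uncoupling by PCR recombination adds noise.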

[2] = tested on: VchCAST RNA-guided transposition machinery (E. coli BL21(DE3) host, lacZ target); assay: relative integration efficiency (T-LR orientation) vs wild-type transposon end (log2 (normalized fold change)); transposon end mutated: right end (5 bp flank + 75 bp right end); higher = more efficient transposition
How it was run: (§1)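 Co-transformation of E. coli BL21(DE3) combined a pUC57 mini-transposon donor, holding barcoded pools of 1549 left-end or 1849 right-end variants, with a T7-driven plasmid encoding a CRISPR array, tniQ-cas8-cas7-cas6 and tnsA-tnsB-tnsC. After plating with 0.1 mM IPTG at 37°C for 18 h, input plasmids and genomic integration junctions were PCR-amplified and Illumina-sequenced across two biological output replicates, with four reference barcodes. Relative integration efficiency is the normalised, log-transformed output/input barcode fold change.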

[3] = tested on: VchCAST RNA-guided transposition machinery (E. coli BL21(DE3) host, lacZ target); assay: relative integration efficiency (T-RL orientation) vs wild-type transposon end (log2 (normalized fold change)); transposon end mutated: right end (5 bp flank + 75 bp right end); higher = more efficient transposition
How it was run: as §1

| Sequence | relative integration efficiency (log2) [1] | relative integration efficiency (log2) [2] | relative integration efficiency (log2) [3] |
| --- | --- | --- | --- |
| AATGTTGTCAACCATAAAGTGATATTTAATAATTATTTATAATCAGCAACTTAACCACAAAACAACCATATATTGATATCTCACAAAACAACCATAAGTTGATATTTTTGTGAATCGAGTATTTCAGCAAAACTACTGCAGTAAGAAAGTTA | -8.1 ± 1.2 | – | – |
| AATGTTGTTCAACCATAAAGTGATATTTAATAATTATTTATAATCAGCAACTTAACCACAAAACAACCATATATTGATATCTCACAAAACAACCATAAGTTGATATTTTTGTGAATCGAGTATTTCAGCAAAACTACTGCAGTAAGAAAGTT | -7.77 ± 0.46 | – | – |
| AATGTTGTTGATGACCAACGCCTGGTCGCGGGGATAATTATTTATAATCAGCAACTTAACCACAAAAACCAACGCGCGGTCGCGAGAACAAAAACCAACGCCCTGTCGCGGGCTGTGAATCGAGTATTTCAGCAAAACTACTGCAGTAAGAA | < -10 | – | – |
| AATGTTGTTGATGACCAACGCCTGGTCGCGGGGATAATTATTTATAATCAGCAACTTAACCACAAAACAACCATATATTGATATCTCACAAAACAACCATAAGTTGATATTTTTGTGAATCGAGTATTTCAGCAAAACTACTGCAGTAAGAA | -8.86 ± 0.67 | – | – |
| AATGTTGTTGATGCAAAACGCCCTGTCGCGGGCCGCCGGCGGGCGCCGACTACCAGGCCAACACCCCACCAACGCGCGGTCGCGAGACACCCCACCAACGCCTGGTCGCGGGGGTGTCCGATCTGATTTCAGCAAAACTACTGCAGTAAGAA | < -10 | – | – |
| AATGTTGTTGATGCAACCATAAAATGATAATTAATAATTATTTATAATCAGCAACTTAACCACAAAATAATTATCATTTTATGGTTGACAAAACAACCATAAAATGATAATTATGTGAATCGAGTATTTCAGCAAAACTACTGCAGTAAGAA | -5.2 ± 1.6 | – | – |
| AATGTTGTTGATGCAACCATAAAGGTCGCGGGCCGCCGGCGGGCGCCGACTACCAGGCCAACACCCCACCAACGCGCGGTCGCGAGACACCCCACCAACGCCTGGTCGCGGGGGTGTCCGATCTGATTTCAGCAAAACTACTGCAGTAAGAA | < -10 | – | – |
| AATGTTGTTGATGCAACCATAAAGTGAATAAATATAATTATTTATAATCAGCAACTTAACCACAAAACAACCATATATTGAATAGAGACAAAACAACCATAAGTTGAATAAAATGTGAATCGAGTATTTCAGCAAAACTACTGCAGTAAGAA | -4.14 ± 1.6 | – | – |
| AATGTTGTTGATGCAACCATAAAGTGAGCGGGCCGCCGGCGGGCGCCGACTACCAGGCCAACACCCCACCAACGCGCGGTCGCGAGACACCCCACCAACGCCTGGTCGCGGGGGTGTCCGATCTGATTTCAGCAAAACTACTGCAGTAAGAA | -8.13 ± 0.57 | – | – |
| AATGTTGTTGATGCAACCATAAAGTGATATAATTATTTATAATCAGCAACTTAACCACAAAACAACCATATATTGATATCTCACAAAACAACCATAAGTTGATATTTTTGTGAATCGAGTATTTCAGCAAAACTACTGCAGTAAGAAAGTTA | -6.82 ± 0.68 | – | – |
| AATGTTGTTGATGCAACCATAAAGTGATATTATAATTATTTATAATCAGCAACTTAACCACAAAACAACCATATATTGATATCTCACAAAACAACCATAAGTTGATATTTTTGTGAATCGAGTATTTCAGCAAAACTACTGCAGTAAGAAAG | -5.22 ± 1.1 | – | – |
| AATGTTGTTGATGCAACCATAAAGTGATATTTAAGAATTATGTCGTTCTAAACAAGAGATATTAGAACAACCATATATTGATATCTCACAAAACAACCATAAGTTGATATTTTTGTGAATCGAGTATTTCAGCAAAACTACTGCAGTAAGAA | -4.29 ± 1.2 | – | – |
| AATGTTGTTGATGCAACCATAAAGTGATATTTAATAACTTCGTATAGCATACATTATACGAAGTTATCAACCATATATTGATATCTCACAAAACAACCATAAGTTGATATTTTTGTGAATCGAGTATTTCAGCAAAACTACTGCAGTAAGAA | -4.52 ± 0.95 | – | – |
| AATGTTGTTGATGCAACCATAAAGTGATATTTAATAACTTCGTATAGTATACCTTATACGAAGTTATCAACCATATATTGATATCTCACAAAACAACCATAAGTTGATATTTTTGTGAATCGAGTATTTCAGCAAAACTACTGCAGTAAGAA | -3.19 ± 0.87 | – | – |
| AATGTTGTTGATGCAACCATAAAGTGATATTTAATAATTACAACCATAAAGTGATATTTAACTTAACCAACCATATATTGATATCTCACAAAACAACCATAAGTTGATATTTTTGTGAATCGAGTATTTCAGCAAAACTACTGCAGTAAGAA | -7.98 ± 1.5 | – | – |
| AATGTTGTTGATGCAACCATAAAGTGATATTTAATAATTATCAACCATATATTGATATCTCACAAAACAACCATAAGTTGATATTTTTGTGAATCGAGTATTTCAGCAAAACTACTGCAGTAAGAAAGTTACTTCGTGGTATGGGAGGATCA | -7.99 ± 0.76 | – | – |
| AATGTTGTTGATGCAACCATAAAGTGATATTTAATAATTATGGCGCCGACTACCAGGCCAACACCCCACCAACGCGCGGTCGCGAGACACCCCACCAACGCCTGGTCGCGGGGGTGTCCGATCTGATTTCAGCAAAACTACTGCAGTAAGAA | -6.86 ± 1.3 | – | – |

| Sequence | relative integration efficiency (log2) [1] | relative integration efficiency (log2) [2] | relative integration efficiency (log2) [3] |
| --- | --- | --- | --- |
| AATGTTGTTGATGCAACCATAAAGTGATATTTAATAATTATTCAACCATAAAGTGATATTTAACTTACAACCATATATTGATATCTCACAAAACAACCATAAGTTGATATTTTTGTGAATCGAGTATTTCAGCAAAACTACTGCAGTAAGAA | -3.81 ± 1.1 | – | – |
| AATGTTGTTGATGCAACCATAAAGTGATATTTAATAATTATTTAGCCGACTACCAGGCCAACACCCCACCAACGCGCGGTCGCGAGACACCCCACCAACGCCTGGTCGCGGGGGTGTCCGATCTGATTTCAGCAAAACTACTGCAGTAAGAA | -7.02 ± 1.2 | – | – |
| AATGTTGTTGATGCAACCATAAAGTGATATTTAATAATTATTTATAACAACCATAAAGTGATATTTACAACCATATATTGATATCTCACAAAACAACCATAAGTTGATATTTTTGTGAATCGAGTATTTCAGCAAAACTACTGCAGTAAGAA | -6.17 ± 1.2 | – | – |
| AATGTTGTTGATGCAACCATAAAGTGATATTTAATAATTATTTATAACAACCATATATTGATATCTCACAAAACAACCATAAGTTGATATTTTTCAGCAACTTAACCACAAAATGTGAATCGAGTATTTCAGCAAAACTACTGCAGTAAGAA | -5.63 ± 0.81 | – | – |
| AATGTTGTTGATGCAACCATAAAGTGATATTTAATAATTATTTATAACAACCATATATTGATATCTCACAAAACAACCATAAGTTGATATTTTTGTGAATCGAGTATTTCAGCAAAACTACTGCAGTAAGAAAGTTACTTCGTGGTATGGGA | -6.45 ± 1 | – | – |
| AATGTTGTTGATGCAACCATAAAGTGATATTTAATAATTATTTATAATCACAACCATATATTGATATCTCGCAACTTAACCACAAAAACAAAACAACCATAAGTTGATATTTTTGTGAATCGAGTATTTCAGCAAAACTACTGCAGTAAGAA | -6.71 ± 0.83 | – | – |
| AATGTTGTTGATGCAACCATAAAGTGATATTTAATAATTATTTATAATCAGACCAGGCCAACACCCCACCAACGCGCGGTCGCGAGACACCCCACCAACGCCTGGTCGCGGGGGTGTCCGATCTGATTTCAGCAAAACTACTGCAGTAAGAA | -6.56 ± 1.8 | – | – |
| AATGTTGTTGATGCAACCATAAAGTGATATTTAATAATTATTTATAATCAGCAAAGGCCAACACCCCACCAACGCGCGGTCGCGAGACACCCCACCAACGCCTGGTCGCGGGGGTGTCCGATCTGATTTCAGCAAAACTACTGCAGTAAGAA | -6.56 ± 1.3 | – | – |
| AATGTTGTTGATGCAACCATAAAGTGATATTTAATAATTATTTATAATCAGCAACAACCATATATTGATATCTCACAAAACAACCATAAGTTGATATTTTTGTGAATCGAGTATTTCAGCAAAACTACTGCAGTAAGAAAGTTACTTCGTGG | -7.72 ± 1.1 | – | – |
| CACGGTGTTGATACAACCATAAAATGATAATTACACCCATAAATTGATAATTATCACACCCATAAATTGATATTGCCTCTGATCATAGTCAGACCAACATTGCTACGACCCGTATTCGCACCGACAC | – | 0.107 ± 0.15 | -0.141 ± 0.051 |
| CACGTTGTTGATACAACCATAAAATGATAATTACACCCATAAATTGATAATTATCACACCCATAAATTGATATTGCCTCTGATCATAGTCAGACCAACATTGCTACGACCCGTATTCGCACCGACAC | – | 0.451 ± 0.3 | -0.27 ± 0.091 |
| CGCGCTGTTGATACAACCATAAAATGATAATTACACCCATAAATTGATAATTATCACACCCATAAATTGATATTGCCTCTGATCATAGTCAGACCAACATTGCTACGACCCGTATTCGCACCGACAC | – | 0.747 ± 0.2 | 0.101 ± 0.1 |
| TATAATGTTGATACAACCATAAAATGATAATTACACCCATAAATTGATAATTATCACACCCATAAATTGATATTGCCTCTGATCATAGTCAGACCAACATTGCTACGACCCGTATTCGCACCGACAC | – | -0.134 ± 0.48 | -0.277 ± 0.026 |
| TGATTTGTTGATACAACCATAAAATGATAATTACACCCATAAATTGATAATTATCACACCCATAAATTGATATTGCCTCTGATCATAGTCAGACCAACATTGCTACGACCCGTATTCGCACCGACAC | – | 0.163 ± 0.18 | 0.00782 ± 0.012 |
| TGTAATGTTGATACAACCATAAAATGATAATTACACCCATAAATTGATAATTATCACACCCATAAATTGATATTGCCTCTGATCATAGTCAGACCAACATTGCTACGACCCGTATTCGCACCGACAC | – | -0.169 ± 0.51 | -0.138 ± 0.063 |
| TGTATTGTTGATACAACCATAAAATGATAATTACACCCATAAATTGATAATTATCACACCCATAAATTGATATTGCCTCTGATCATAGTCAGACCAACATTGCTACGACCCGTATTCGCACCGACAC | – | 0.421 ± 0.14 | -0.0404 ± 0.0046 |
